Experimental data taken from article PMC8636562, “Mounting, structure and autocleavage of a type VI secretion-associated Rhs polymorphic toxin” (Nature Communications, 2021).

How the values were obtained:
[1] = target: T1, Rhs1 D1338N Y1351A Y1375A, C-terminally FLAG-tagged (catalytic-null mutant used for cryo-EM) (Photorhabdus laumondii (P. luminescens …, UniProt Q7N9I0 1-1471, D1338N | Y1351A | Y1375A)); experiment: cryo-EM structure; EagR-Strep/Rhs1-FLAG (D1338N, Y1351A, Y1375A) complex purified by StrepTrap and Superose 6; single particle, Talos Arctica 200 kV; 3.72 Å unmasked map, 3.17 Å masked on the Rhs1 shell; EagR dimer homology model fitted in low-resolution density; settings: both partners purified
T1 construct: Rhs1 (Plu0353) of Photorhabdus laumondii with D1338N (no C-terminal autocleavage) and Y1351A, Y1375A (no toxicity); atomic model built for residues 272-1357; also called Rhs1^FL; source: E. coli BL21(DE3), co-purified with EagR (StrepTrap HP, Superose 6)
T1 sequence (looked up): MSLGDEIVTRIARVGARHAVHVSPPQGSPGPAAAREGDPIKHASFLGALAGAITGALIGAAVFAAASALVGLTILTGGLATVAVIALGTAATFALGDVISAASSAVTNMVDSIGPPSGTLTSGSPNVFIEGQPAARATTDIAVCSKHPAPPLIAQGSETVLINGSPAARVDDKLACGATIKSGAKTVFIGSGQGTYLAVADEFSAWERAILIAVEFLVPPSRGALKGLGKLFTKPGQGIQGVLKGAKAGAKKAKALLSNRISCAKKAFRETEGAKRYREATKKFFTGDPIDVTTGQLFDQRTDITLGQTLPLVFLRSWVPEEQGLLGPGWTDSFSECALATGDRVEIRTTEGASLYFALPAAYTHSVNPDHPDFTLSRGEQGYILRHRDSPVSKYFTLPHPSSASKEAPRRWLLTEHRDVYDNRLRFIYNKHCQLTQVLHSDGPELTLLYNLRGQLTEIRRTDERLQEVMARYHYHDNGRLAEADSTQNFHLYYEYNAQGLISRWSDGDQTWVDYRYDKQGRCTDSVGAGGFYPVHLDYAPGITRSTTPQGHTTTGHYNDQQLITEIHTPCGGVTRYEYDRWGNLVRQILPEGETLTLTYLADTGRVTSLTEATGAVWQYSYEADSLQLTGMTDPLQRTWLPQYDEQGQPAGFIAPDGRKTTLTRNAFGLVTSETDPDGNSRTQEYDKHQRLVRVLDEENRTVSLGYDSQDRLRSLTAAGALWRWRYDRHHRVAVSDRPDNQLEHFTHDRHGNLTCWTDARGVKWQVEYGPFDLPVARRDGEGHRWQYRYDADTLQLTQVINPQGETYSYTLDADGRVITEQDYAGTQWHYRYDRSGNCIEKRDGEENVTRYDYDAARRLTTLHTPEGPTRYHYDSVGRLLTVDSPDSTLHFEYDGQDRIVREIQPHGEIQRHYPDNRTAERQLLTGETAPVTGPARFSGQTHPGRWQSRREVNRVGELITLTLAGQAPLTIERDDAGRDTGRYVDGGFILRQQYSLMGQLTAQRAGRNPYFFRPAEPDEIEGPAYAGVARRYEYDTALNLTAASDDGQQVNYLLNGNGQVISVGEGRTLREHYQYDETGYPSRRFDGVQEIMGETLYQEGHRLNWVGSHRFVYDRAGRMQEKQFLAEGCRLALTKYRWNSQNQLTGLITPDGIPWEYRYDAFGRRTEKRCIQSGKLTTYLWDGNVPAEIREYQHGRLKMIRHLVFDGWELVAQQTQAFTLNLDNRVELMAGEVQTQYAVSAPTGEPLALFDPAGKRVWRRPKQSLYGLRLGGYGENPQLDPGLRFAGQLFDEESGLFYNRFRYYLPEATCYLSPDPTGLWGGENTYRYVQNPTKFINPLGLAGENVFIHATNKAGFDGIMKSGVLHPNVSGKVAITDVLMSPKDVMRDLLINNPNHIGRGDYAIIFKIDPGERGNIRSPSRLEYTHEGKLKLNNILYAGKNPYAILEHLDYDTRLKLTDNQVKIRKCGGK

[2] = target: the molecule itself; experiment: as above

B1: Photorhabdus laumondii EagR chaperone (Plu0354), C-terminally Strep-tagged (natural protein)
chain: MENTTYQMNEGSLAIPGNWRDESMNVFVLPDDSGINLVVSRTPVPAGMDNPAYYEQTLEQFCTHLPGYQEHQRSEITLSQQPARRLDYQWTSPEGDMYQTVILQIRGPLLLTFNLTSPAPFEAGQRDTLLAIVHSFQAA
notes: Eag (DUF1795) family chaperone EagR of Photorhabdus laumondii, Plu0354; also called ^STEagR; EagR^ST; source: E. coli BL21(DE3), co-produced, in total cell extract; also purified in complexes (Strep-Tactin resin; StrepTrap HP and Superose 6); not shown: Strep-tag, C-terminal, kept
binding result [1]: binds | binding result [2]: binds
